Measurements published in patent publication US20210155689A1 (SHANGHAI PHARMAEXPLORER, published 2021).

T1: monkey LAG-3 (full length, on the cell surface) (monkey, UniProt P18627 24-525 (human entry))
T1 construct: also called HEK293-cLAG-3; monkey LAG-3 protein on the cell surface
T1 chain: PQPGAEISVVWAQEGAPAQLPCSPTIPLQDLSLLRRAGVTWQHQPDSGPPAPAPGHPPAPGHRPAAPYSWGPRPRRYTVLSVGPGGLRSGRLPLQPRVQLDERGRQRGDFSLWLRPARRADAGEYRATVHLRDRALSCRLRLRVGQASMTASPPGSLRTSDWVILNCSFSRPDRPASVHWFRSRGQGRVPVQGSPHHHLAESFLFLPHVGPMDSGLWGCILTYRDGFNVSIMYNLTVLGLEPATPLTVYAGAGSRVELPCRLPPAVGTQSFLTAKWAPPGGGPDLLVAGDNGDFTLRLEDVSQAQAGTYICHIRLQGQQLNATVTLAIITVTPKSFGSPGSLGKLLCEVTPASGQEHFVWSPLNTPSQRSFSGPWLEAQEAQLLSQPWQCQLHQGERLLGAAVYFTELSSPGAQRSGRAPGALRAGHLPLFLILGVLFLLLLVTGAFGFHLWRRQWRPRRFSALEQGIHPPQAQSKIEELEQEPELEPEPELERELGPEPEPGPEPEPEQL

T2: human LAG-3 protein with hFc tag (hLAG-3-hFc protein) (human, UniProt P18627 23-450)
T2 construct: also called immunogen 1; LAG-3 extracellular domain protein; not shown: human IgG Fc fragment (hFc) of the pCpC vector
T2 sequence: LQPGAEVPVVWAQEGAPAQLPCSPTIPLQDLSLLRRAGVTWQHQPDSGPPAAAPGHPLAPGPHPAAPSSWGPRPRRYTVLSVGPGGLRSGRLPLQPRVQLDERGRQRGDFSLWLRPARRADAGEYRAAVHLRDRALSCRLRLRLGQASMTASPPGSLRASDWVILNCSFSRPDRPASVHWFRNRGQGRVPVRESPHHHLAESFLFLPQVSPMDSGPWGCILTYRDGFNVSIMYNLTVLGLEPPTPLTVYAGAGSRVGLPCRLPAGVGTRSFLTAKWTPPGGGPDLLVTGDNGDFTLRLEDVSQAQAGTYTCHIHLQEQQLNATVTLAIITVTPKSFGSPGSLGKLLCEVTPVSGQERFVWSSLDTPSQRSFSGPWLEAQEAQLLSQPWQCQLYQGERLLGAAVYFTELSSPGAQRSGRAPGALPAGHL


Key:
[1] = biological target: T1, monkey LAG-3 (full length, on the cell …); test: FACS, HEK293-cLAG-3; 8.000 nM
Source text: (§1) The pIRES plasmid with the monkey-derived full-length gene was transfected into the HEK293 cell line to construct a HEK293 stable cell line containing monkey LAG-3 (herein referred to as HEK293-cLAG-3 stable cell line). The HEK293-hLAG-3 stable cell line and HEK293-cLAG-3 stable cell line were expanded in a T-75 cell culture flask to a 90% confluence. The medium was aspirated, and the cells were washed with HBSS (Hanks' Balanced Salt Solution) 1-2 times, then treated with a enzyme-free cell dissociation fluid (Versene solution: Life technology) and the cells were collected. The cells were washed with HBSS buffer for 1-2 times. After counted, the cells were diluted with HBSS to 1-2×10⁶ cells per ml, added with 1% goat serum blocking solution, incubated on ice for 20-30 minutes, and then washed with HBSS for 2 times by centrifugation. The collected cells were suspended in the FACS buffer (HBSS+1% BSA) to 2×10⁶ cells/ml, added as 100 microliters per well to a 96-well FACS reaction plate, added with 100 microliters per well of the antibody sample to be tested, incubated on ice for 1-2 hours. The plate was washed twice with the FACS buffer by centrifugation, added with 100 microliters of fluorescent (Alexa 488)-labeled secondary antibodies per well, and incubated on ice for 0.5-1.0 hours. The plate was washed 2-3 times with FACS buffer by centrifugation, added with 100 μl fixative solution (4% Paraformaldehyde) per well to suspend the cells. 5-10 minutes later, it was washed 1-2 times with FACS buffer by centrifugation. The cells were suspended with 100 microliters of FACS buffer, FACS (FACSCalibur, BD) was used for detection and the results were analyzed.

[2] = biological target: T1, monkey LAG-3 (full length, on the cell …); test: FACS, HEK293-cLAG-3; 40.000 nM
Source text: as §1

[3] = biological target: T1, monkey LAG-3 (full length, on the cell …); test: FACS, HEK293-cLAG-3; 200.000 nM
Source text: as §1

[4] = biological target: T2, human LAG-3 protein with hFc tag …; test: FACS, blocks LAG-3-hFc binding to MHC II on Raji; 0.274 nM
Experimental: (§2) The FACS reaction plate incubating the Raji cells was centrifuged to discard the supernatant. The above mixture was added as 100 μl per well to Raji cells and incubated on ice for 1-2 hours. The plate was washed twice with blocking solution (PBS, 2% fetal bovine serum) by centrifugation, added with 100 microliters of fluorescent (Alexa 488)-labeled secondary antibodies per well, and incubated on ice for 1.0 hours. The plate was washed 2-3 times by centrifugation with blocking solution (PBS, 2% fetal bovine serum), added with 100 microliters of PBS per well to suspend cells, and detected using FACS (FACS Calibur, BD) and the results were analyzed. Wherein, the IgG control was murine IgG, and the data in the table is the inhibition rate (%).

[5] = biological target: T2, human LAG-3 protein with hFc tag …; test: FACS, blocks LAG-3-hFc binding to MHC II on Raji; 2.469 nM
Experimental: as §2

[6] = biological target: T2, human LAG-3 protein with hFc tag …; test: ELISA, hLAG-3-hFc coated; 0.0001 nM
Experimental: The plate was sealed with plastic film and incubated overnight at 4° C. The plate was washed 2 times with the plate washing solution (PBS+0.01% Tween20) on the next day, and added with the blocking solution (PBS+0.01% Tween20+1% BSA) and blocked at room temperature for 1-2 hours. The blocking solution was poured out, and the plate was added with 50-100 μl of the antibody sample to be tested to each well, incubated at 37° C. for 1-2 hours, and washed 2-3 times with a plate washing solution (PBS+0.01% Tween20). HRP (horseradish peroxidase) labeled secondary antibody was added, and the plate was incubated at 37° C. for 1-2 hours, and washed 2-3 times with a plate washing solution (PBS+0.01% Tween20). 100 μl of TMB substrate was added to each well. After incubated at room temperature for 15-30 minutes, the plate was added with 100 μl of stop solution (1.0N HCl) to each well.

Binder | Mean fluorescence intensity [1] | Mean fluorescence intensity [2] | Mean fluorescence intensity [3] | Inhibition rate (%) [4] | Inhibition rate (%) [5] | OD450 [6]
556F6B8 (mouse antibody purified from hybridoma) (antibody, V domains shown, also called mAb123-556F6B8) VH: RVQLKQSGPGLVQPSQSLSITCTVSGFSLIKYGVHWVRQSPGEGLEWLGVIWRGGITDYNAAFMSRLSITKDNSKSQVFFKMNSLQADDTAIYYCAKWDGPLAMDYWGQGTSVTVSS VL: DIVMTQSHKFLSTSVGDRVSITCKASQDVGTTVAWYQQKPGQSPKLLIYWASTRHTGVPDRFTGSGSGTDFTLTISNVQSEDLADYFCQQYSSYPYTFGGGTKLEIK | 46.7 MFI | 51 MFI | 52.2 MFI | 6% | 48.1% | 
556F6B8 (LAG-3 mouse-human chimeric antibody) (antibody, V domains shown, also called 556F8B8) VH: RVQLKQSGPGLVQPSQSLSITCTVSGFSLIKYGVHWVRQSPGEGLEWLGVIWRGGITDYNAAFMSRLSITKDNSKSQVFFKMNSLQADDTAIYYCAKWDGPLAMDYWGQGTSVTVSS VL: DIVMTQSHKFLSTSVGDRVSITCKASQDVGTTVAWYQQKPGQSPKLLIYWASTRHTGVPDRFTGSGSGTDFTLTISNVQSEDLADYFCQQYSSYPYTFGGGTKLEIK |  |  |  |  |  | 0.13 OD450
405B8H3 (mouse antibody purified from hybridoma) (antibody, V domains shown, also called mAb103-405B8H3; 405B81-13) VH: QVQLQQSGAELVRPGASVTLSCKASGYTFTDYEMHWVKQTPVHGLEWIGATDPETGNSAYNQKFKGKAIMTADKSSSTAYMELRSLTSEDSAVYYCISTGWNDWGQGTSLTVSS VL: DIKMTQSPSSMYASLGERVTITCKASQDINSYLSWFQQKPGKSPKTLIYRADRLLDGVPSRFSGSGSGQDYSLTISSLEYGDMGIYYCLQYDEFPYTFGGGTKLEIK | 61.4 MFI | 108 MFI | 139 MFI | 2.1% | 41.9% | 
405B8H3 (LAG-3 mouse-human chimeric antibody) (antibody, V domains shown, also called mouse-human chimeric antibody 405B8H3) VH: QVQLQQSGAELVRPGASVTLSCKASGYTFTDYEMHWVKQTPVHGLEWIGATDPETGNSAYNQKFKGKAIMTADKSSSTAYMELRSLTSEDSAVYYCISTGWNDWGQGTSLTVSS VL: DIKMTQSPSSMYASLGERVTITCKASQDINSYLSWFQQKPGKSPKTLIYRADRLLDGVPSRFSGSGSGQDYSLTISSLEYGDMGIYYCLQYDEFPYTFGGGTKLEIK |  |  |  |  |  | 0.11 OD450
105F1E10 (LAG-3 mouse-human chimeric antibody) (antibody, V domains shown) VH: EVQLQQSGPELVKPGASVKMSCRASGYTFTDFKMHWMKQSHGKSLEWIGYIAPNNGGTAYNQKFRGKATLTVNESSNTAYMELRSLTSEDSAVYYCVDWDDVDYWGQGTTLTVSS VL: DIKMTQSPSSMYASLGERVTITCKASQDINSYLSWFQQKSGKSPKTLIYRANRLVDGVPSRFSGSGSGQDYSLTISSLEYEDMGIYYCLQYVEFPLTFGAGTKLELK |  |  |  |  |  | 0.13 OD450
105F1E10 (mouse antibody purified from hybridoma) (antibody, V domains shown, also called mAb009-105F1E10) VH: EVQLQQSGPELVKPGASVKMSCRASGYTFTDFKMHWMKQSHGKSLEWIGYIAPNNGGTAYNQKFRGKATLTVNESSNTAYMELRSLTSEDSAVYYCVDWDDVDYWGQGTTLTVSS VL: DIKMTQSPSSMYASLGERVTITCKASQDINSYLSWFQQKSGKSPKTLIYRANRLVDGVPSRFSGSGSGQDYSLTISSLEYEDMGIYYCLQYVEFPLTFGAGTKLELK | 44.6 MFI | 87 MFI | 120 MFI | -8.3% | 27.8% | 
409D4E10 (mouse antibody purified from hybridoma) (antibody, V domains shown, also called mAb112-409D4E10) VH: QVQLQQSGAELVRPGASVTLSCKASGNTFTDYEMHWVKQTPVHGLEWIGATDPETDNTAYNQKFKGKAILTTDKSSSTAYMELRSLTSEDSAVYYCITSGWNDWGQGTSLTVSS VL: DIKMTQSPSSMYASLGERVTITCKASQDINSYLSWFQQKPGKSPKTLIYRANRLLDGVPSRFSGSGSGQDYSLTISSLEYEDMGIYYCLQYNEFPYTFGGGTKLEIK | 93.8 MFI | 130 MFI | 153 MFI | -7.5% | 44.7% | 
409B11E12 (LAG-3 mouse-human chimeric antibody) (antibody, V domains shown) VH: QVQLQQSGAELVRPGASVTLSCKASGYTFTDYEMHWVKQTTVHGLEWIGATDPETSYSAYNQKFKGKAILTADKSSSTAYMELRSLTSEDSAVYYCIATGWNDWGQGTSLTVSS VL: DLKMTQSPSSMYASLGERVTITCKASQDINSYLSWFQQKPGKSPKTLIYRANRLLDGVPSRFSGSGSGQDYSLTISSLEYEDMGIYYCLQYDEFPYTFGGGTKLEIK |  |  |  |  |  | 0.12 OD450
409D4E10 (LAG-3 mouse-human chimeric antibody) (antibody, V domains shown) VH: QVQLQQSGAELVRPGASVTLSCKASGNTFTDYEMHWVKQTPVHGLEWIGATDPETDNTAYNQKFKGKAILTTDKSSSTAYMELRSLTSEDSAVYYCITSGWNDWGQGTSLTVSS VL: DIKMTQSPSSMYASLGERVTITCKASQDINSYLSWFQQKPGKSPKTLIYRANRLLDGVPSRFSGSGSGQDYSLTISSLEYEDMGIYYCLQYNEFPYTFGGGTKLEIK |  |  |  |  |  | 0.13 OD450
409B11E12 (mouse antibody purified from hybridoma) (antibody, V domains shown, also called mAb104-409B11E12) VH: QVQLQQSGAELVRPGASVTLSCKASGYTFTDYEMHWVKQTTVHGLEWIGATDPETSYSAYNQKFKGKAILTADKSSSTAYMELRSLTSEDSAVYYCIATGWNDWGQGTSLTVSS VL: DLKMTQSPSSMYASLGERVTITCKASQDINSYLSWFQQKPGKSPKTLIYRANRLLDGVPSRFSGSGSGQDYSLTISSLEYEDMGIYYCLQYDEFPYTFGGGTKLEIK | 69.9 MFI | 102 MFI | 134 MFI | -3.9% | 39.6% | 
